{
  "source": "the nanobody polyreactivity screen of Harvey et al. (2022)",
  "data": [
    {"experiment": "yeast display, Sf9 membrane polyspecificity reagent, FACS + sequencing; frameworks hold sequencing errors", "how_it_was_run": "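Nanobodies from a synthetic yeast display library (Saccharomyces cerevisiae BJ5465), induced 36–48 hours with galactose, were stained 1 hour at 4 °C with 10% biotinylated, detergent-solubilized Sf9 membrane reagent, enriched on streptavidin microbeads, then FACS-sorted. Anti-HA (expression) and streptavidin (reagent binding) fluorescence set low and high (top ~1%) gates. Polyreactivity labels come from the gate of origin. Genes were colony-PCR amplified, MiSeq 2 × 250 sequenced and filtered by CDR length.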", "values": [
      {"sequence": "QVQLVESGGGLVQAGGSLRLSCAHSASTLQIYAMGWDRQAPGKESELVASISSTTSTNYADSVMGRFTISRDNAKNTVYLQMNSMKPEDTAVYYCARERFGGTDSQVVPWFRFDYDYWGQRTQVTVSS", "polyreactivity (PSR sort gate)": "low polyreactivity"},
      {"sequence": "QVQLVESGGGLVQAGGSLRLSSAASGRTFFYYAMGWYRQAPGKERELVAVISGSGARTYYADSVKGRFTISRDNAKYTVYLQMNSLKPEDTAVYYWIKVFARSRSSRYQAYDYWGQGTQVTVSS", "polyreactivity (PSR sort gate)": "high polyreactivity"},
      {"sequence": "QVQLVESGGGLVQAGGSLRLSCAASGYTFLIYAMGGYRQAPGKERELVASISRSGGSTYYADSVKGRFTISRDNAKKTVYLQMNSLKPEDTAVYYCAARNPYRYFYNYEYWGQGTQVTVSS", "polyreactivity (PSR sort gate)": "low polyreactivity"},
      {"sequence": "QVQLVESWGGLVQAGGSLRLSCAASGFIFSRYAMGWYRQAPGKERELVAAISSRGGSTYYADSVKGRFTISRDNAKNTVYLQMNSLKPEDTAVYYCAKSSPTPHYYWGQGTQVTVSS", "polyreactivity (PSR sort gate)": "high polyreactivity"},
      {"sequence": "QVQLVESGGGLVQAGGSLRLSCAASGSTFRNNAMGWYRQAHGKERELVAAISRGGGSTYYADSVKGRFTISRDNAKNTVYLQMNSLKPEDTAVYYCARRPTGIYDYWGQGTQVTVSS", "polyreactivity (PSR sort gate)": "high polyreactivity"},
      {"sequence": "QVQLVESGGGLVQAGGSLRLSCAASGRTFPRYVMGWNRQAPGKERELVAAISSSGGSTYYADSVKGRFTISRDNAKNTVYLQMNSLKPEDTAVYYCAAPSGGSKRYYYWGQGTKVTVSS", "polyreactivity (PSR sort gate)": "high polyreactivity"},
      {"sequence": "QVQLVESGGGLVQAGGSLRLSCAASGSIFNVYAMGWYRQAPGKERELVAAISDGDGSTFYADSVKGRFTISRDNAKNTVYLQMNSLKPEDTAVYYCAKDYRWDSKFDYWGQGTQVTVSS", "polyreactivity (PSR sort gate)": "low polyreactivity"},
      {"sequence": "QVQLVESGGGLVQAGGSLRLSCAASGMIFGYYAMGWYRQAPAKERELVAAITGSGGRTYYADSVKGRFTISRDNAKNTVYLQMNSLKTEDTAVYYCADRGVNGMGYWGQGTHVTVSS", "polyreactivity (PSR sort gate)": "high polyreactivity"},
      {"sequence": "QVQLVESGGGLVQAGVSLRLSCAASGNTFKYYPMGWYRQAPGKEWELVAGITGTGGRTNYADSVKGRFTISRDNAKNTVYLQMTSLKPEDTAVYYFAADYWWYTGYDYWGQGTQVTVSS", "polyreactivity (PSR sort gate)": "high polyreactivity"},
      {"sequence": "QVQLEDSGGGLVQAGGRLRLSCAASGYIFSDYAMGWYRQAPGKERELVADIRARGGSTYYADSVKGRFTISRDKAQNTVYLQMNSLKPEDTAVYYCNVEDPFYSGVVEFDYWGQGTQVTVSS", "polyreactivity (PSR sort gate)": "low polyreactivity"},
      {"sequence": "QVQLVESGGGLVQAGGSLRLSCAASGRIFNEYGMGWYRQAPGKERELVAAITDGTTTYYADSVKGRFTISRDNAKNTVYLQMNSLKPEDTAVYYCAASSTWYGYYIFVFRAYDYWGQGTQVTVSS", "polyreactivity (PSR sort gate)": "low polyreactivity"},
      {"sequence": "QVQLVESGGGLVQAGGSLRLSCAASGNIFPRYAMGWYRQATGKERELVAAITWRTSSTYYADSVKGRFTISRDNAKNTVYLQMNSLKPEDTAVYYCAKTSSRIAGEYWGQGTQVTVSS", "polyreactivity (PSR sort gate)": "low polyreactivity"},
      {"sequence": "QVQLVESGGGLVQAGGSLRLSCAASGGTFYVNAMGWYRQAPGKERELVADISYSGGRTYYADSVKGRFTISRDNAKKTVYLQMNSLKPEDTAVYYCAADPYWVGYGSPFGYWGQGTQVTVSS", "polyreactivity (PSR sort gate)": "high polyreactivity"},
      {"sequence": "QVHLVESWGGLVQAGGSLRLSCAASGRTFWKYAMGWYRQAPWKDRVLVAAITASGARTYYADSVKGRFSISRDNGKNTVYLQMNSLKPEDTSVYYCNAGSVSDRQMDYWGQGTQVTVSS", "polyreactivity (PSR sort gate)": "low polyreactivity"},
      {"sequence": "QVQLVESGGGLVQAGGSLRLSCAASGRTFAQYGMGWYRQAPGKERELVAAISRSGGRTYYADSVKGRFTISRDNAKNTVYLQMNSLKPEDTAVYYCAARAYLISSSTPFWTGYDSWGHGTQVTVSS", "polyreactivity (PSR sort gate)": "low polyreactivity"},
      {"sequence": "QVQLVESGGGLVQAGGSLRLICAASGFILKYNAMGWYRQAPGKERELVAAISSNGGRTYYADSVKGRFTISRDNAMNTVYLQMNSLKPVDTAVYYCAAGRLQPVLGGYWGQGTQVTVSS", "polyreactivity (PSR sort gate)": "low polyreactivity"},
      {"sequence": "QVQLVESGGGLVQAGGSLRLSCAASGRTLGVYAMGWSRQAPGKERELVAAIRYRGGITYYADSVKGRFTISRDNAKNTVYLQMNSLKPEDTAVYYCAADWAWDTKSAPAYPRAYDYWGQGTQVTVSS", "polyreactivity (PSR sort gate)": "low polyreactivity"}
    ]}
  ]
}
